# Measurements published in patent US20230174642A1, “AFFINITY-MATURATED ANTI-ASIC1a ANTIBODIES” (SHANGHAITECH UNIVERSITY, priority 2019, published 2023).
# Numbering of substitutions follows the chain as printed.
# T1: recombinant extracellular domain of hASIC1a (hASIC1a-ECD) (Homo sapiens, UniProt P78348)
# T1 construct: recombinant extracellular domain of hASIC1a(hASIC1a-ECD)
# T1 sequence (P78348 67-427 limits assumed): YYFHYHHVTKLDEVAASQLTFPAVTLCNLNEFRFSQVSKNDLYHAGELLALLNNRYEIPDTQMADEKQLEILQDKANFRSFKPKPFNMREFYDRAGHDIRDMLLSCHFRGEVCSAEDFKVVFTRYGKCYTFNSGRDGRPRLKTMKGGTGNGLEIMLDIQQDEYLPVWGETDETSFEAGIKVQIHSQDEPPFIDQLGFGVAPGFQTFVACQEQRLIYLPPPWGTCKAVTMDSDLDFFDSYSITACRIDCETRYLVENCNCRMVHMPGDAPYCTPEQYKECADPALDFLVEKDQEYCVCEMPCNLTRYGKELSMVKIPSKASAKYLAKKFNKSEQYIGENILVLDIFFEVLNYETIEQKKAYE
# T2: human ASIC1b (hASIC1b-eYFP) (Homo sapiens, UniProt P78348)
# T2 construct: expressed in transfected cells; host or cells: CHO-K1 (transient)
# T2 sequence (P78348 1-562 isoform P78348-3): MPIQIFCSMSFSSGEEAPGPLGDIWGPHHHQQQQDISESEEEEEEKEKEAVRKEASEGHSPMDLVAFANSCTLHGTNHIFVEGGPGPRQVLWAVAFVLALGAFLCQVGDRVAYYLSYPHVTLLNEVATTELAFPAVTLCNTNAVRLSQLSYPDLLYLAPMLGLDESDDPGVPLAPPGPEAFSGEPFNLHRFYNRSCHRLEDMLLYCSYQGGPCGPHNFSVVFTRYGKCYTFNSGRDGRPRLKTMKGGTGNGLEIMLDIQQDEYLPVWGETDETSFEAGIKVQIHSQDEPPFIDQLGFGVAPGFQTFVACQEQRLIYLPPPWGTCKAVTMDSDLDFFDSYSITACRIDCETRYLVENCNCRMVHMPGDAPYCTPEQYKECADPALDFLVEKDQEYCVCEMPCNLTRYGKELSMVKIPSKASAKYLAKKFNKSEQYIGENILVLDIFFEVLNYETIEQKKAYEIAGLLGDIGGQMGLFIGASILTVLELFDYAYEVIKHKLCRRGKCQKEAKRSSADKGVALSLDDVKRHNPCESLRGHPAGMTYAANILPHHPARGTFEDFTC
# T3: human ASIC2a (hASIC2a-eYFP) (Homo sapiens, UniProt Q16515)
# T3 construct: expressed in transfected cells; host or cells: CHO-K1 (transient)
# T3 sequence (Q16515 1-512): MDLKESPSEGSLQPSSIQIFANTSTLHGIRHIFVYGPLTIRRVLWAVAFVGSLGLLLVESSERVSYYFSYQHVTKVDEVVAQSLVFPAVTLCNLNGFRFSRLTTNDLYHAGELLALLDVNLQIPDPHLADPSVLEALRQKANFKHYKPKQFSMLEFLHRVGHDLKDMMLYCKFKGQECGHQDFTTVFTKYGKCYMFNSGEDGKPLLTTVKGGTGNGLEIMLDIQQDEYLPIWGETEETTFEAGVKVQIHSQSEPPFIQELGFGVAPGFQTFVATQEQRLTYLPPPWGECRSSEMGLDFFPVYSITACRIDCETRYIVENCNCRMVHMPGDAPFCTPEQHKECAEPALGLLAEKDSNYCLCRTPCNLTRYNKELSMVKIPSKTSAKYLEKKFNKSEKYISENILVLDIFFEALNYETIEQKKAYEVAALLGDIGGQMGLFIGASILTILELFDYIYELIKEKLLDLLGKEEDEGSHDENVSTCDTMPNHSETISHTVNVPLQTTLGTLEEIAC
# T4: human ASIC3a (hASIC3a-eYFP) (Homo sapiens, UniProt Q9UHC3)
# T4 construct: expressed in transfected cells; host or cells: CHO-K1 (transient)
# T4 sequence (Q9UHC3 1-531): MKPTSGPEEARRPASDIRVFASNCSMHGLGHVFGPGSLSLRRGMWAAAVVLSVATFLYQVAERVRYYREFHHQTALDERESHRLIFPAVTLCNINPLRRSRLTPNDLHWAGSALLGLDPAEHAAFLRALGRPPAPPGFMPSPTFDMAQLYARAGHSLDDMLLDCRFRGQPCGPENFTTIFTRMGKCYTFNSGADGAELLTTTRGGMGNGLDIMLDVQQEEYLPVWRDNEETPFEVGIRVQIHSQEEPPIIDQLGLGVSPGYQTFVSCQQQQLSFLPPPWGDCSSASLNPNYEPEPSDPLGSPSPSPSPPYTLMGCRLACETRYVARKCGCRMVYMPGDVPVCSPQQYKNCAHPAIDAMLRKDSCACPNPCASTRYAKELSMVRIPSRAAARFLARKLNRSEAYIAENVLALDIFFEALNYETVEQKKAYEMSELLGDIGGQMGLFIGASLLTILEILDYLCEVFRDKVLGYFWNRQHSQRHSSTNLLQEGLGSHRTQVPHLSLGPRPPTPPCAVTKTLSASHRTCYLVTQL
# B1: ASC06-01-IgG1: affinity-matured ASC06 derivative, VH-CDR3 DSYFGYSKGD (SEQ ID NO: 11) (antibody, V domains shown)
# VH: QVQLQQSGGGLVQPGGSLRLSCAASGFTFSSYAMSWVRQAPGKGLEWVSAISGSGGSTYYADSVKGRFTISRDNSKNTLYLQMNSLRAEDTAVYYCAKDSYFGYSKGDWGQGTLVTVSS
# VL: QSALTQPASVSGSPGQSITISCTGTSSDVGAYNYVSWYQQQPGKAPKLMIYGVSNRPSGVSNRFSGSKSGNAASLTISGLQAEDEADYYCSSYTSSSTYVFGTGTKLTVLG
# B2: ASC06-IgG1: parental (WT) ASIC1a-specific antagonist antibody; VL SEQ ID NO: 2, VH SEQ ID NO: 7, VH-CDR3 DSFYGYSKGD (antibody, V domains shown)
# VH: B1 VH with Y101F, F102Y
# VL: B1 VL
# modifications: IgG1 constant regions; Amino acid sequence VH of ASC06; Amino acid sequence VL of ASC06
# B3: ASC06-02-IgG1: affinity-matured ASC06 derivative, VH-CDR3 DSFFGRAKGS (SEQ ID NO: 13) (antibody, V domains shown)
# VH: B1 VH with Y101F, Y104R, S105A, D108S
# VL: B1 VL
# B4: ASC06-04-IgG1: affinity-matured ASC06 derivative, VH-CDR3 DSFYGRAKGV (SEQ ID NO: 17) (antibody, V domains shown)
# VH: B1 VH with Y101F, F102Y, Y104R, S105A, D108V
# VL: B1 VL
# B5: ASC06-03-IgG1: affinity-matured ASC06 derivative, VH-CDR3 DSFYGRAKGS (SEQ ID NO: 15) (antibody, V domains shown)
# VH: B1 VH with Y101F, F102Y, Y104R, S105A, D108S
# VL: B1 VL
# Target: T1, recombinant extracellular domain of hASIC1a (hASIC1a-ECD)
# Test: Biacore T200 binding affinity measurement
# Settings: Biacore T200, hASIC1a immobilized, antibody as analyte
# Experimental: Binding affinities of four affinity-matured antibodies in IgG1 format (ASC06-01-IgG1 through ASC06-04-IgG1) to the recombinant extracellular domain of hASIC1a(hASIC1a-ECD) were measured using the Biacore T200™ (GE Healthcare). The ASC06-IgG1 antibody was used as a positive control. All manipulations were followed by the user guide of manufacturer. Briefly, was hASIC1a was immobilized, and serial dilutions of the indicated antibodies were added as analytes. The analysis of the results were processed in BIA Evaluation Software™.
row,Molecule,Ka
1,B1,9.7e+06 M⁻¹ s⁻¹
2,B2,4.7e+06 M⁻¹ s⁻¹
3,B3,1.3e+07 M⁻¹ s⁻¹
4,B4,620000 M⁻¹ s⁻¹
5,B5,680000 M⁻¹ s⁻¹

# Target: T2, human ASIC1b (hASIC1b-eYFP)
# Test: FACS-based binding assay, transiently transfected CHO-K1 cells (isotype selectivity)
# Settings: not given
# Text: (§1) To examine the ASIC isotype selectivity of ASC06-IgG1 affinity-matured antibodies, plasmids encoding fusion proteins of eYFP with isoforms of […] were constructed. These plasmids included those encoding human ASIC1b (hASIC1b-eYFP), human ASIC2a (hASIC2a-eYFP), and human ASIC3a (hASIC3a-eYFP). CHO-K1 cells were transiently transfected with these plasmids and used in a FACS-based binding assay disclosed herein. Binding of ASC06-IgG1 to CHO-K1 cells expressing human ASIC1a-eYFP (hASIC1a-eYFP) was used as a positive control (data not shown and FIG. 2), and an isotype control was used as a negative control for binding (NC).
row,Molecule,binding to the hASIC1b isoform
1,B1,no detectable binding
2,B2,no detectable binding
3,B3,no detectable binding
4,B4,no detectable binding
5,B5,no detectable binding

# Target: T3, human ASIC2a (hASIC2a-eYFP)
# Test: as above
# Settings: not given
# Text: as §1
row,Molecule,binding to the hASIC2a isoform
1,B1,no detectable binding
2,B2,no detectable binding
3,B3,no detectable binding
4,B4,no detectable binding
5,B5,no detectable binding

# Target: T4, human ASIC3a (hASIC3a-eYFP)
# Test: as above
# Settings: not given
# Text: as §1
row,Molecule,binding to the hASIC3a isoform
1,B1,no detectable binding
2,B2,no detectable binding
3,B3,no detectable binding
4,B4,no detectable binding
5,B5,no detectable binding
